1 molecule from PMC9757750 (Science Advances, 2022) can be followed below.

In assay [1] the target is 6×His-LegA15, full-length (Legionella pneumophila Philadelphia, UniProt Q5ZSR1 1-471). Description: pull-down. The settings on record: both partners purified.
The target in assay [2] is Flag-LegA15 used in the GST pulldown of Fig. 2E (Legionella pneumophila Philadelphia, UniProt Q5ZSR1). Description: pull-down. The settings on record: both partners purified.

B1: GST-p115 (1 to 651), ND (domain or fragment, human, UniProt O60763 1-651, looked up)
chain: MNFLRGVMGGQSAGPQHTEAETIQKLCDRVASSTLLDDRRNAVRALKSLSKKYRLEVGIQAMEHLIHVLQTDRSDSEIIGYALDTLYNIISNEEEEEVEENSTRQSEDLGSQFTEIFIKQQENVTLLLSLLEEFDFHVRWPGVKLLTSLLKQLGPQVQQIILVSPMGVSRLMDLLADSREVIRNDGVLLLQALTRSNGAIQKIVAFENAFERLLDIISEEGNSDGGIVVEDCLILLQNLLKNNNSNQNFFKEGSYIQRMKPWFEVGDENSGWSAQKVTNLHLMLQLVRVLVSPTNPPGATSSCQKAMFQCGLLQQLCTILMATGVPADILTETINTVSEVIRGCQVNQDYFASVNAPSNPPRPAIVVLLMSMVNERQPFVLRCAVLYCFQCFLYKNQKGQGEIVSTLLPSTIDATGNSVSAGQLLCGGLFSTDSLSNWCAAVALAHALQENATQKEQLLRVQLATSIGNPPVSLLQQCTNILSQGSKIQTRVGLLMLLCTWLSNCPIAVTHFLHNSANVPFLTGQIAENLGEEEQLVQGLCALLLGISIYFNDNSLESYMKEKLKQLIEKRIGKENFIEKLGFISKHELYSRASQKPQPNFPSPEYMIFDHEFTKLVKELEGVITKAIYKSSEEDKKEEEVKKTLEQHDNI
notes: also called N-terminal ARM domain; globular head
In the case of B1, the binding result in assay [1] and in assay [2] was “binds” in each case.
